Source: US20110250170A1 (PHILOGEN S P A, published 2011)

Target: T1, A1 domain of tenascin-C (TNC-A1) (UniProt P24821 1073-1163, limits assumed)
T1 construct: domain: A1; Coupled to Sepharose resin in the immunoreactivity test; also called extra-domain A1 of tenascin-C
T1 sequence (looked up): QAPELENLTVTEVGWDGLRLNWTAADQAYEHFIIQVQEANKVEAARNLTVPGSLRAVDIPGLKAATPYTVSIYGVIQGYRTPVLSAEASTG
Assay: real-time interaction analysis, BIAcore 3000

B1: F16 human monoclonal antibody (original clone 4A1-F16) (antibody, V domains shown)
VH: EVQLLESGGGLVQPGGSLRLSCAASGFTFSRYGASWVRQAPGKGLEWVSAISGSGGSTYYADSVKGRFTISRDNSKNTLYLQMNSLRAEDTAVYYCAKAHNAFDYWGQGTLVTVSR
VL: SSELTQDPAVSVALGQTVRITCQGDSLRSYYASWYQQKPGQAPVLVIYGKNNRPSGIPDRFSGSSSGNTASLTITGAQAEDEADYYCNSSVYTMPPVVFGGGTKLTVL
In the case of B1, the koff is reported as less than 0.01 s⁻¹.
